# Publication doi:10.1101/2025.10.03.680009
# Legend:
# [1] = target: GST-TbPEX6 (full-length) (Trypanosoma brucei); experiment: AlphaScreen or HTRF
# [2] = target: tag-free TbPEX6 (Trypanosoma brucei); experiment: SEC
# GST-PreScission protease = experiment: SEC
Substance,Kd [1],stoichiometry N [2],stoichiometry N (GST-PreScission protease)
His6-TbPEX15ΔTM (1-320aa) (domain or fragment),10.3 nM,1,–
GST-PreScission protease (enzyme),–,–,2
Tag-free TbPEX15ΔTM (1-320aa) (domain or fragment),15.3 to 30.4 nM,–,–
